From article PMC10138814 come the findings set out here.

The target in assay [1] is mCherry-LaM1 complex (llama). Kind of assay: ITC; 100 uM nanobody in the syringe into 10 uM mCherry (or 8.9 uM mCherry-LaM1 or mCherry-LaM3 complex) in the cell; 25 °C; one set of sites. On the technique in general: In ITC the heat of successive injections is recorded.
The target in assay [2] is mCherry-LaM3 complex (llama). The assay is described as above.

B1: LaM8 (VHH)
VHH: QVQLVESGGGLVQAGGSLRLSCAVSGRPFSEYNLGWFRQAPGKEREFVARIRSSGTTVYTDSVKGRFSASRDNAKNMGYLQLNSLEPEDTAVYYCAMSRVDTDSPAFYDYWGQGTQVTVST
On to B1, for which, in assay [1], the Kd (in general, the free concentration of one partner at which half of the binding sites on the other are occupied at equilibrium, for simple one-to-one binding) was found to be 54 nM; the dH was -10.3 kcal/mol; the stoichiometry N (in general, a count of units in the complex or per binding partner) amounted to 0.854 sites. Also, in assay [2], the Kd turned out to be 236 nM, the dH is -9.99 kcal/mol and the stoichiometry N turned out to be 0.799 sites.
